Molecular target: T1, S5a protein (Ube3a target protein), P55036
T1 chain: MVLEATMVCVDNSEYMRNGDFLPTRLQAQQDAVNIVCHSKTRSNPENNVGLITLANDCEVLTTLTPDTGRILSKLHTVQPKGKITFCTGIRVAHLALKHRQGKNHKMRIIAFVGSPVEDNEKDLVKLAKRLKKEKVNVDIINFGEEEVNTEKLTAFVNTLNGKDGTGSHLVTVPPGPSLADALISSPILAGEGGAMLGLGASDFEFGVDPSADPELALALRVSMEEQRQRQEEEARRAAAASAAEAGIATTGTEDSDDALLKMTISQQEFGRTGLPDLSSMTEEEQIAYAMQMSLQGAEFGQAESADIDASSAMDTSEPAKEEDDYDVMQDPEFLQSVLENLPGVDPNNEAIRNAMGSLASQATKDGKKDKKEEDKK

B1: Human Ube3a isoform 1 with 8xN-glycan sites and IL2 secretion signal (expressed from the hAS8 lentiviral vector) (protein)
chain: MKRAAAKHLIERYYHQLTEGCGNEACTNEFCASCPTFLRMDNNTAAIKALELYKINAKLCDPHPSKKGASSAYLENSTGAPNNTCSEIKMNKKGARIDFKDVTYLTEEKVYEILELCREREDYSPLIRVIGRVFSSAEALVQSFRKVKQHTKEELKSLQAKDEDKDEDEKEKAACSAAAMEEDSEASSSRIGDSSQGDNNTQKLGPDDVSVDIDAIRRVYTRLLSNEKIETAFLNALVYLSPNVECDLTYHNVYSRDPNYLNLFIIVMENRNLHSPEYLEMALPLFCKAMSKLPLAAQGKLIRLWSKYNADQIRRMMETFQQLITYKVISNEFNSTNLVNDDDAIVAASKCLKMVYYANVVGGEVDTNHNEEDDEEPIPESSELTLQELLGEERRNKKGPRVDPLETELGVKTLDCRKPLIPFEEFINEPLNEVLEMDKDYTFFKVETENKFSFMTCPFILNAVTKNLGLYYDNRIRMYSERRITVLYSLVQGQQLNPYLRLKVRRDHIIDDALVRLEMIAMENPADLKKQLYVEFEGEQGVDEGGVSKEFFQLVVEEIFNPDIGMFTYDNSTKLFWFNPSSFETEGQFTLIGIVLGLAIYNNTILDVHFPMVVYRKLMGKKGTFRDLGDSHPVLYQSLKDLLEYEGNVEDDMMITFQISQTDLFGNPMMYDLKENGDKIPITNENRKEFVNLYSDYILNKSVEKQFKAFRRGFHMVTNESPLKYLFRPEEIELLICGSRNLDFQALEETTEYDGGYTRDSVLIREFWEIVHSFTDEQKRLFLQNNTGTDRAPVGGLGKLKMIIAKNGPDTERLPTSHTCFNVLLLPEYSSKEKLKERLLKAITYAKGFGML
**Q.** With B1 as the protein, how does the “ubiquitination activity of the Ube3a S5a target protein (blot, bands of ubiquitinated S5A)” value read?
**A.** The value was “different mutated forms of Ube3a ubiquitinate their S5A target”.

From patent publication US20220305098
